Data reported in US20240377408A1.

What was measured:
Assay in all cases: cell-based or functional assay
[1] = molecular target: human carbonic anhydrase 2 (wild-type hCAII) (Homo sapiens) (UniProt P00918)
M64-EAEIR = molecular target: M64-EAEIR
M64-DAEIR = molecular target: M64-DAEIR
M64-FAEIR = molecular target: M64-FAEIR
M64-LAEIR = molecular target: M64-LAEIR
M64-AAEIR = molecular target: M64-AAEIR

FAAAE (peptide)
IC50 (µM), hCAII functional assay (p-nitrophenyl acetate hydrolysis) [1]: 152 µM

Carbonic anhydrase I, Homo sapiens (scaffold) (from UniProt P00915 5-261) (enzyme)
IC50 values (µM), colorimetric pNPA hydrolysis inhibition assay (M64-EAEIR): 1.09 µM | IC50 values (µM), colorimetric pNPA hydrolysis inhibition assay (M64-DAEIR): 0.136 µM | IC50 values (µM), colorimetric pNPA hydrolysis inhibition assay (M64-FAEIR): 0.012 µM | IC50 values (µM), colorimetric pNPA hydrolysis inhibition assay (M64-LAEIR): 0.016 µM | IC50 values (µM), colorimetric pNPA hydrolysis inhibition assay (M64-AAEIR): 0.109 µM
